Experiment [1] concerns the target T1, Cynomolgus monkey glycophorin A on Cynomolgus monkey red blood cells (Cynomolgus monkey).
T1 construct: whole, on cells; also called Cyno GPA; Cyno RBC
The experiment in a line: partition to Cyno RBC, human HemA plasma, 1 min.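 Further: FVIII fusion spiked at 1 IU/mL into RBC suspension at whole-blood density.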
Procedure: (§1) To evaluate partition to cynomolgus monkey or human red blood cells, whole blood was draw from Cynomolgus monkey or normal human volunteers in to anticoagulant with 4% sodium citrate (Sigma, St Louis, Mo.). The red blood cells were purified by layering the whole blood on to ficoll followed by low speed centrifugation. The supernatant containing plasma, platelets and white blood cells was discarded and the red blood cell pellet was resuspended in 10 pellet volumes of PBS (50 mM Phosphate buffer, pH7.4, 150 mM NaCl). The red blood cells were then pelleted by slow speed centrifugation and the red blood cells re-suspended in 10 volumes of PBS. This washing step was repeated 4 more times and the red blood cells finally resuspended in a volume of plasma from Hemophilia patients with less than 1% of normal levels of FVIII (GeorgeKing Bio-Medical, Overland Park, Kans.) to generate a total volume equal to the initial blood volume such that the RBC density was equal to that of normal whole blood. BDD and RBC targeted FVIII molecules were then spiked into RBC suspension in HemA plasma at 1 IU/mL, and incubated at room temperature for 2-3 hours with gentle rotation. […] An additional control was performed in which BDD or RBC targeted FVIII molecules were added at 11U/ml into the same human hemophilia A plasma and incubated for 5 minutes and 180 mins. These samples were used to determine the input FVIII activity in the presence of plasma which was used to calculate the percentage of the molecule that was bound to RBC. All plasma samples were then assayed together for FVIII activity using the Coatest SP assay (DiaPharma, Columbus, Ohio). The assay was performed following the manufacturer's instructions in a 96-well plate format. […] The plate was incubated at 37° C. for 10 minutes with shaking between each reagent addition.

In experiment [2] the target is T1, Cynomolgus monkey glycophorin A on …. The experiment in a line: partition to Cyno RBC, human HemA plasma, 5 min.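 Further: FVIII fusion spiked at 1 IU/mL into RBC suspension at whole-blood density.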
Experiment [3] has as its target T2, human glycophorin A on human red blood cells (human, UniProt P02724 20-150).
T2 construct: whole, on cells; also called human GPA; huGPA
T2 sequence (looked up): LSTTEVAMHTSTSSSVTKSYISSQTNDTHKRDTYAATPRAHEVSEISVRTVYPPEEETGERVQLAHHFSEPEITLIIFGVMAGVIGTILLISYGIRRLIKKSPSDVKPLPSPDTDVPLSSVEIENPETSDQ
The experiment in a line: partition to human RBC, human HemA plasma, 1 min.
Procedure: (§2) The supernatant containing plasma, platelets and white blood cells was discarded and the red blood cell pellet was resuspended in 10 pellet volumes of PBS (50 mM Phosphate buffer, pH7.4, 150 mM NaCl). The red blood cells were then pelleted by slow speed centrifugation and the red blood cells re-suspended in 10 volumes of PBS. This washing step was repeated 4 more times and the red blood cells finally resuspended in a volume of plasma from Hemophilia patients with less than 1% of normal levels of FVIII (GeorgeKing Bio-Medical, Overland Park, Kans.) to generate a total volume equal to the initial blood volume such that the RBC density was equal to that of normal whole blood. BDD and RBC targeted FVIII molecules were then spiked into RBC suspension in HemA plasma at 1 IU/mL, and incubated at room temperature for 2-3 hours with gentle rotation. […] An additional control was performed in which BDD or RBC targeted FVIII molecules were added at 11U/ml into the same human hemophilia A plasma and incubated for 5 minutes and 180 mins. These samples were used to determine the input FVIII activity in the presence of plasma which was used to calculate the percentage of the molecule that was bound to RBC. All plasma samples were then assayed together for FVIII activity using the Coatest SP assay (DiaPharma, Columbus, Ohio). The assay was performed following the manufacturer's instructions in a 96-well plate format. […] The plate was incubated at 37° C. for 10 minutes with shaking between each reagent addition. […] The amount of FVIII activity in the plasma reflects the amount of unbound FVIII. The FVIII activity of the same molecule spiked in to Hemophilia A plasma alone (no RBC) and incubated for 5 minutes was normalized to 100%.

The target in experiment [4] is T2, human glycophorin A on human red blood …. The experiment in a line: partition to human RBC, human HemA plasma, 5 min.
Procedure: as §2
The target in experiment [5] is T1, Cynomolgus monkey glycophorin A on …. The experiment in a line: partition to Cyno RBC, human HemA plasma, 15 min.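 Further: FVIII fusion spiked at 1 IU/mL into RBC suspension at whole-blood density.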
Procedure: as §1
Experiment [6] has the same target. Kind of experiment: partition to Cyno RBC, human HemA plasma, 30 min.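 Further: FVIII fusion spiked at 1 IU/mL into RBC suspension at whole-blood density.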
Procedure: as §1
The target is the same in experiment [7]. The experiment in a line: partition to Cyno RBC, human HemA plasma, 60 min.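 Further: FVIII fusion spiked at 1 IU/mL into RBC suspension at whole-blood density.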
Experiment [8] deals with T2, human glycophorin A on human red blood …. Kind of experiment: partition to human RBC, human HemA plasma, 15 min.
Procedure: as §2
Experiment [9] shares this target. The experiment in a line: partition to human RBC, human HemA plasma, 30 min.
Procedure: as §2
Experiment [10] shares this target. Kind of experiment: partition to human RBC, human HemA plasma, 60 min.
Procedure: as §2
Experiment [11] deals with T1, Cynomolgus monkey glycophorin A on …. Kind of experiment: partition to Cyno RBC, human HemA plasma, 120 min.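 Further: FVIII fusion spiked at 1 IU/mL into RBC suspension at whole-blood density.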
Experiment [12] concerns the target T2, human glycophorin A on human red blood …. Kind of experiment: partition to human RBC, human HemA plasma, 120 min.
Procedure: as §2
For experiment [13] the target is unchanged. The experiment in a line: partition to human RBC, human HemA plasma, 120 min. The source holds these as a separate data set.
Procedure: as §2
The target is the same in experiment [14]. Kind of experiment: partition to human RBC, vWF deficient plasma, 1 min.
Experiment [15] shares this target. Kind of experiment: partition to human RBC, vWF deficient plasma, 5 min.
For experiment [16] the target is unchanged. The experiment in a line: partition to human RBC, vWF deficient plasma, 15 min.
The target is the same in experiment [17]. The experiment in a line: partition to human RBC, vWF deficient plasma, 30 min.
The target is the same in experiment [18]. The experiment in a line: partition to human RBC, vWF deficient plasma, 60 min.
The target is the same in experiment [19]. Kind of experiment: partition to human RBC, vWF deficient plasma, 120 min.

B1: TPP-9901 FVIII-scFv fusion protein (other)
chain: ATRRYYLGAVELSWDYMQSDLGELPVDARFPPRVPKSFPFNTSVVYKKTLFVEFTDHLFNIAKPRPPWMGLLGPTIQAEVYDTVVITLKNMASHPVSLHAVGVSYWKASEGAEYDDQTSQREKEDDKVFPGGSHTYVWQVLKENGPMASDPLCLTYSYLSHVDLVKDLNSGLIGALLVCREGSLAKEKTQTLHKFILLFAVFDEGKSWHSETKNSLMQDRDAASARAWPKMHTVNGYVNRSLPGLIGCHRKSVYWHVIGMGTTPEVHSIFLEGHTFLVRNHRQASLEISPITFLTAQTLLMDLGQFLLFCHISSHQHDGMEAYVKVDSCPEEPQLRMKNNEEAEDYDDDLTDSEMDVVRFDDDNSPSFIQIRSVAKKHPKTWVHYIAAEEEDWDYAPLVLAPDDRSYKSQYLNNGPQRIGRKYKKVRFMAYTDETFKTREAIQHESGILGPLLYGEVGDTLLIIFKNQASRPYNIYPHGITDVRPLYSRRLPKGVKHLKDFPILPGEIFKYKWTVTVEDGPTKSDPRCLTRYYSSFVNMERDLASGLIGPLLICYKESVDQRGNQIMSDKRNVILFSVFDENRSWYLTENIQRFLPNPAGVQLEDPEFQASNIMHSINGYVFDSLQLSVCLHEVAYWYILSIGAQTDFLSVFFSGYTFKHKMVYEDTLTLFPFSGETVFMSMENPGLWILGCHNSDFRNRGMTALLKVSSCDKNTGDYYEDSYEDISAYLLSKNNAIEPRSFSQNGGGGSTGGTGGSSGGGTGSGGGGTGGSGGTDIQLTQSPSFLSASVGDRVTITCRASSSVRYIYWFQQKPGKAPKLLIYATSFRQSGVPSRFSGSGSGTEYTLTISSLQPEDFATYYCHQRNSFPYTFGQGTKLEIKGGGGSGGGGSGGGGSGGGGSEVQLVQSGAEVKKPGASVKVSCKASGYTFTTYAIHWVRQAPGQGLEWMGYINPSSGYTRYNPKFKGRVTMTRDKSTSTAYMELRSLRSDDTAVYYCWTGTRDYWGQGTTVTVSSGGGGDENQSPRSFQKKTRHYFIAAVERLWDYGMSSSPHVLRNRAQSGSVPQFKKVVFQEFTDGSFTQPLYRGELNEHLGLLGPYIRAEVEDNIMVTFRNQASRPYSFYSSLISYEEDQRQGAEPRKNFVKPNETKTYFWKVQHHMAPTKDEFDCKAWAYFSDVDLEKDVHSGLIGPLLVCHTNTLNPAHGRQVTVQEFALFFTIFDETKSWYFTENMERNCRAPCNIQMEDPTFKENYRFHAINGYIMDTLPGLVMAQDQRIRWYLLSMGSNENIHSIHFSGHVFTVRKKEEYKMALYNLYPGVFETVEMLPSKAGIWRVECLIGEHLHAGMSTLFLVYSNKCQTPLGMASGHIRDFQITASGQYGQWAPKLARLHYSGSINAWSTKEPFSWIKVDLLAPMIIHGIKTQGARQKFSSLYISQFIIMYSLDGKKWQTYRGNSTGTLMVFFGNVDSSGIKHNIFNPPIIARYIRLHPTHYSIRSTLRMELMGCDLNSCSMPLGMESKAISDAQITASSYFTNMFATWSPSKARLHLQGRSNAWRPQVNNPKEWLQVDFQKTMKVTGVTTQGVKSLLTSMYVKEFLISSSQDGHQWTLFFQNGKVKVFQGNQDSFTPVVNSLDPPLLTRYLRIHPQSWVHQIALRMEVLGCEAQDLYGGGSGGGGSGLVPRGSGGGSGGGGSGDIQLTQSPSFLSASVGDRVTITCRASSSVRYIYWFQQKPGKAPKLLIYATSFRQSGVPSRFSGSGSGTEYTLTISSLQPEDFATYYCHQRNSFPYTFGQGTKLEIKGGGGSGGGGSGGGGSGGGGSEVQLVQSGAEVKKPGASVKVSCKASGYTFTTYAIHWVRQAPGQGLEWMGYINPSSGYTRYNPKFKGRVTMTRDKSTSTAYMELRSLRSDDTAVYYCWTGTRDYWGQGTTVTVSS
notes: also called PPB 7855
In the case of B1, the “% bound to Cyno RBC” value came out at 26.4% in experiment [1]; 46% in experiment [2]; 54% in [5]; 58% in [6]; 68% in experiment [7]; 71% in [11]. The “percentage bound to human RBC” value in experiment [3] stood at 31.4%; in experiment [4], 53.8%; in experiment [8] it was 71.5%; in [9], 78.9%; in [10], 84.1%; in [12], 86.7%. For the same molecule, the “percentage bound to human RBC” value in [13] came out at 86.7%; in experiment [14] it was 26%; in experiment [15], 44.9%; in experiment [16], 53.8%; in experiment [17], 57.3%; in [18] it was 64.3%. In addition, in [19], the “percentage bound to human RBC” value was found to be 72.7%.
